This note sets out measurements from patent US20210380703A1.

To fix the notation:
B1: 371_F07 (antibody, V domains shown)
VH: EVQLLESGGGLVQPGGSLRLSCAASGFTFSSYGMHWVRQAPGKGLEWVAGINYNGGYTSYADSVKGRFTISRDNSKNTLYLQMNSLRAEDTAVYYCARAATWHDTHLDYWGQGTLVTVSS
VL: DIQMTQSPSSLSASVGDRVTITCRASQSILTYLNWYQQKPGKAPKLLIYAATSLASGVPSRFSGSGSGTDFTLTISSLQPEDFATYYCQQSDSNPLTFGGGTKVEIK
B2: 374_B01 (antibody, V domains shown)
VH: EVQLLESGGGLVQPGGSLRLSCAASGFTFDSYGMHWVRQAPGKGLEWVAGINYNSGYTSYADSVKGRFTISRDNSKNTLYLQMNSLRAEDTAVYYCARAATWHDTHLDYWGQGTLVTVSS
VL: DIQMTQSPSSLSASVGDRVTITCRASQSILSYLNWYQQKPGKAPKLLIYAASSLQSGVPSRFSGSGSGTDFTLTISSLQPEDFATYYCQQSYDSPLTFGGGTKVEIK
B3: 373_B01 (antibody, V domains shown)
VH: EVQLLESGGGLVQPGGSLRLSCAASGFTFDSYGMHWVRQAPGKGLEWVSGINYNGGYKSYADSVKGRFTISRDNSKNTLYLQMNSLRAEDTAVYYCARAATWHDTHLDYWGQGTLVTVSS
VL: DIQMTQSPSSLSASVGDRVTITCRASQSILSYVNWYQQKPGKAPKLVIYAATSRASGVPSRFSGSGSGTDFTLTISSLQPEDFATYYCQQSYDLPLTFGGGTKVEIK
B4: 373_D11 (antibody, V domains shown)
VH: EVQLLESGGGLVQPGGSLRLSCAASGFTFSSYGMHWVRQAPGKGLEWVAGINYNGGYTSYADSVKGRFTISRDNSKNTLYLQMNSLRAEDTAVYYCARAATWHDTHLDYWGQGTLVTVSS
VL: DIQMTQSPSSLSASVGDRVTITCRASQSILTYVNWYQQKPGKAPKLLIYAATSRASGVPSRFSGSGSGTDFTLTISSLQPEDFATYYCQQSYDNPLTFGGGTKVEIK
B5: 365_F03 (antibody, V domains shown)
VH: EVQLLESGGGLVQPGGSLRLSCAASGFTFDSYSMNWVRQAPGKGLEWVSSINYNGGYTSYADSVKGRFTISRDNSKNTLYLQMNSLRAEDTAVYYCARGANWHDTHLDYWGQGTLVTVSS
VL: DIQMTQSPSSLSASVGDRVTITCRASQSILSYLNWYQQKPGKAPKLLIYAATSRASGVPSRFSGSGSGTDFTLTISSLQPEDFATYYCQQSYDNPLTFGGGTKVEIK
B6: 365_G04 (antibody, V domains shown)
VH: EVQLLESGGGLVQPGGSLRLSCAASGFTFDSYSMNWVRQAPGKGLEWVAGINYNGGYTGYADSVKGRFTISRDNSKNTLYLQMNSLRAEDTAVYYCARGANWHDTHLDYWGQGTLVTVSS
VL: DIQMTQSPSSLSASVGDRVTITCRASQSIVSYVNWYQQKPGKAPKLVIYAATSLASGVPSRFSGSGSGTDFTLTISSLQPEDFATYYCQQSYDTPLTFGGGTKVEIK
B7: 372_D07 (antibody, V domains shown)
VH: EVQLLESGGGLVQPGGSLRLSCAASGFTFSSYGMNWVRQAPGKGLEWVAGINYNGGYTSYADSVKGRFTISRDNSKNTLYLQMNSLRAEDTAVYYCARAATWHDTHLDYWGQGTLVTVSS
VL: DIQMTQSPSSLSASVGDRVTITCRASQSILSYLNWYQQKPGKAPKLLIYAATSRASGVPSRFSGSGSGTDFTLTISSLQPEDFATYYCQQSYESPLTFGGGTKVEIK
B8: 375_H04 (antibody, V domains shown)
VH: EVQLLESGGGLVQPGGSLRLSCAASGFTFSSYGMHWVRQAPGKGLEWVAGINYNSGYTGYADSVKGRFTISRDNSKNTLYLQMNSLRAEDTAVYYCARAATWHDTHLDYWGQGTLVTVSS
VL: DIQMTQSPSSLSASVGDRVTITCRASQSILSYLNWYQQKPGKAPKLVIYAATSRASGVPSRFSGSGSGTDFTLTISSLQPEDFATYYCQQSYSNPLTFGGGTKVEIK
B9: 376_D08 (antibody, V domains shown)
VH: EVQLLESGGGLVQPGGSLRLSCAASGFTFDSYGMNWVRQAPGKGLEWVANINYNSGYKSYADSVKGRFTISRDNSKNTLYLQMNSLRAEDTAVYYCARAATWHDTALDYWGQGTLVTVSS
VL: DIQMTQSPSSLSASVGDRVTITCRASQSILTYLNWYQQKPGKAPKLVIYYANNRPSGVPSRFSGSGSGTDFTLTISSLQPEDFATYYCQQSYSNPLTFGGGTKVEIK
B10: 374_A10 (antibody, V domains shown)
VH: EVQLLESGGGLVQPGGSLRLSCAASGFTFSSYGMHWVRQAPGKGLEWVSGINYNGGYTSYADSVKGRFTISRDNSKNTLYLQMNSLRAEDTAVYYCARAATWHDTHLDYWGQGTLVTVSS
VL: DIQMTQSPSSLSASVGDRVTITCRASQSILSYVNWYQQKPGKAPKLLIYAATSRASGVPSRFSGSGSGTDFTLTISSLQPEDFATYYCQQSYDTPLTFGGGTKVEIK
B11: 365_C05 (antibody, V domains shown)
VH: EVQLLESGGGLVQPGGSLRLSCAASGFTFSDYSMNWVRQAPGKGLEWVSGINYNGGYKGYADSVKGRFTISRDNSKNTLYLQMNSLRAEDTAVYYCARGANWHDTHLDYWGQGTLVTVSS
VL: DIQMTQSPSSLSASVGDRVTITCRASQSILTYLNWYQQKPGKAPKLLIYAATSRHSGVPSRFSGSGSGTDFTLTISSLQPEDFATYYCQQSYNSPLTFGGGTKVEIK
B12: 373_G06 (antibody, V domains shown)
VH: EVQLLESGGGLVQPGGSLRLSCAASGFTFSSYGMHWVRQAPGKGLEWVASINYNSGYTGYADSVKGRFTISRDNSKNTLYLQMNSLRAEDTAVYYCARAATWHDTHLDYWGQGTLVTVSS
VL: DIQMTQSPSSLSASVGDRVTITCRASQSILSYVNWYQQKPGKAPKLLIYAATSLASGVPSRFSGSGSGTDFTLTISSLQPEDFATYYCQQSYNLPLTFGGGTKVEIK
B13: 375_D02 (antibody, V domains shown)
VH: EVQLLESGGGLVQPGGSLRLSCAASGFTFSSYSMNWVRQAPGKGLEWVSNINYNGGYTSYADSVKGRFTISRDNSKNTLYLQMNSLRAEDTAVYYCARAATWHDTHLDYWGQGTLVTVSS
VL: DIQMTQSPSSLSASVGDRVTITCRASQSILTYLNWYQQKPGKAPKLLIYAASSLQSGVPSRFSGSGSGTDFTLTISSLQPEDFATYYCQQSYELPLTFGGGTKVEIK
B14: 365_F02 (antibody, V domains shown)
VH: EVQLLESGGGLVQPGGSLRLSCAASGFTFSSYSMNWVRQAPGKGLEWVSGINYNGGYKGYADSVKGRFTISRDNSKNTLYLQMNSLRAEDTAVYYCARGANWHDTHLDYWGQGTLVTVSS
VL: DIQMTQSPSSLSASVGDRVTITCRASQSILTYVNWYQQKPGKAPKLLIYAATSRHSGVPSRFSGSGSGTDFTLTISSLQPEDFATYYCQQSYDTPLTFGGGTKVEIK
B15: 375_C03 (antibody, V domains shown)
VH: EVQLLESGGGLVQPGGSLRLSCAASGFTFDSYSMHWVRQAPGKGLEWVSGINYNGGYTSYADSVKGRFTISRDNSKNTLYLQMNSLRAEDTAVYYCARAATWHDTHLDYWGQGTLVTVSS
VL: DIQMTQSPSSLSASVGDRVTITCRASQSILSYVNWYQQKPGKAPKLVIYAATSRASGVPSRFSGSGSGTDFTLTISSLQPEDFATYYCQQSYESPLTFGGGTKVEIK
B16: 376_F09 (antibody, V domains shown)
VH: EVQLLESGGGLVQPGGSLRLSCAASGFTFDSYSMHWVRQAPGKGLEWVSSINYNGGYKSYADSVKGRFTISRDNSKNTLYLQMNSLRAEDTAVYYCARAATWHDTHLDYWGQGTLVTVSS
VL: DIQMTQSPSSLSASVGDRVTITCRASQSILTYVNWYQQKPGKAPKLLIYAVTSRASGVPSRFSGSGSGTDFTLTISSLQPEDFATYYCQQSYDTPLTFGGGTKVEIK
B17: 374_B07 (antibody, V domains shown)
VH: EVQLLESGGGLVQPGGSLRLSCAASGFTFSSYGMHWVRQAPGKGLEWVSSINYNGGYKSYADSVKGRFTISRDNSKNTLYLQMNSLRAEDTAVYYCARAATWHDTHLDYWGQGTLVTVSS
VL: DIQMTQSPSSLSASVGDRVTITCRASQSIISYLNWYQQKPGKAPKLLIYAATSLASGVPSRFSGSGSGTDFTLTISSLQPEDFATYYCQQSYESPLTFGGGTKVEIK
B18: 374_A12 (antibody, V domains shown)
VH: EVQLLESGGGLVQPGGSLRLSCAASGFTFDSYGMHWVRQAPGKGLEWVSSINYNGGYTSYADSVKGRFTISRDNSKNTLYLQMNSLRAEDTAVYYCARAATWHDTHLDYWGQGTLVTVSS
VL: DIQMTQSPSSLSASVGDRVTITCRASQSILTYLNWYQQKPGKAPKLLIYAATSRASGVPSRFSGSGSGTDFTLTISSLQPEDFATYYCQQSDSNPLTFGGGTKVEIK
B19: 365_E12 (antibody, V domains shown)
VH: EVQLLESGGGLVQPGGSLRLSCAASGFTFSDYGMNWVRQAPGKGLEWVSNINYNGGYTGYADSVKGRFTISRDNSKNTLYLQMNSLRAEDTAVYYCARGANWHDTALDYWGQGTLVTVSS
VL: DIQMTQSPSSLSASVGDRVTITCRASQSILTYLNWYQQKPGKAPKLLIYAATSRASGVPSRFSGSGSGTDFTLTISSLQPEDFATYYCQQSYETPLTFGGGTKVEIK
B20: 366_A02 (antibody, V domains shown)
VH: EVQLLESGGGLVQPGGSLRLSCAASGFTFDSYGMNWVRQAPGKGLEWVASINYNSGYKGYADSVKGRFTISRDNSKNTLYLQMNSLRAEDTAVYYCARAANWHDTHLDYWGQGTLVTVSS
VL: DIQMTQSPSSLSASVGDRVTITCRASQSIVSYVNWYQQKPGKAPKLLIYAATSRASGVPSRFSGSGSGTDFTLTISSLQPEDFATYYCQQSYDLPLTFGGGTKVEIK
B21: 366_A04 (antibody, V domains shown)
VH: EVQLLESGGGLVQPGGSLRLSCAASGFTFSSYGMNWVRQAPGKGLEWVAGINYNGGYTSYADSVKGRFTISRDNSKNTLYLQMNSLRAEDTAVYYCARAANWHDTALDYWGQGTLVTVSS
VL: DIQMTQSPSSLSASVGDRVTITCRASQSILTYLNWYQQKPGKAPKLVIYAATSLASGVPSRFSGSGSGTDFTLTISSLQPEDFATYYCQQSDDSPLTFGGGTKVEIK

This test has as its target human Fc (human). The test is described as follows: ELISA, negative control. On the technique in general: An ELISA detects its analyte on a solid surface through an enzyme-linked reagent.
B1 had an optical density of 0.425 OD.

In the case of B2, the optical density was determined as 0.173 OD.

B3: the optical density was 0.197 OD.

As for B4, the optical density amounted to 0.364 OD.

In turn, B5 displayed an optical density of 0.347 OD.

The molecule B6 yielded an optical density of 0.295 OD.

For the molecule B7, the optical density was 0.472 OD.

Consider B8, for which the optical density came to 0.181 OD.

As to B9, the optical density is 0.232 OD.

The molecule B10 returned an optical density of 0.23 OD.

B11 gave an optical density of 0.271 OD.

B12: the optical density is 0.196 OD.

As for B13, the optical density is 0.191 OD.

Regarding B14, the optical density was 0.326 OD.

B15: the optical density was 0.217 OD.

The molecule B16 returned an optical density of 0.25 OD.

The molecule B17 yielded an optical density of 0.25 OD.

Turning to B18, the optical density was found to be 0.308 OD.

Molecule B19 gave an optical density of 0.338 OD.

Molecule B20 came in with an optical density of 0.336 OD.

Consider B21, for which the optical density was found to be 0.319 OD.
